In article PMC7338556, “A Truncated Form of HpARI Stabilizes IL-33, Amplifying Responses to the Cytokine” (Frontiers in Immunology, 2020):

B1: recombinant murine IL-33 (ligand)
chain: SIQGTSLLTQSPASLSTYNDQSVSFVLENGCYVINVDDSGKDQEQDQVLLRYYESPCPASQSGDGVDGKKLMVNMSPIKDTDIWLHANDKDYSVELQRGDVSPPEQAFFVLHKKSSDFVSFECKNLPGTYIGVKDNQLALVEEKDESCNNIMFKLSKI
modifications: Reduced (active) form with free cysteines. Limits are not given; the usual commercial (BioLegend) mature mouse IL-33, Ser109-Ile266, is assumed, matching the candidate chain 109-266

How the values were obtained:
recombinant murine IL-33 = target: B1; assay: SPR; HpARI, HpARI_CCP1/2 or HpARI_CCP2/3 captured via the hexa-His tag and covalently stabilised on an NTA chip (400 RU); mIL-33 2.47-200 nM injected, single-cycle kinetics, 25 °C; 10 mM NaH2PO4 pH 7.5, 150 mM NaCl, 50 μM EDTA, 0.05% P20; global fit of a 1:1 model with mass transport; settings: both partners purified
[1] = target: T1, H. polygyrus Alarmin Release Inhibitor (HpARI), full-length (Heligmosomoides polygyrus); assay: as above; settings: both partners purified
T1 construct: It was cloned into the secretion vector pSecTAG2A, so the native signal peptide may be missing and a vector leader used (surmise); also called full-length HpARI; source: Expi293F cells, transfected (pSecTAG2A), purified from supernatant (HisTrap excel, HiTRAP chelating HP Ni column); not shown: His6, C-terminal, kept

Binder | Kd (recombinant murine IL-33) [nM] | koff (recombinant murine IL-33) [s⁻¹] | Kd [1] [nM] | koff [1] [s⁻¹]
HpARI_CCP1/2 (HpARI truncation lacking CCP3) (domain or fragment) AGQRCRFTDVERDKGYTGMLLKGRLRKTAGNGRTVELICGRGNHNYTCESGVLKESSPRQARCGCKGILEMLFDMPKEERPSPMYDSVTYDPTPNTPTTVGKDGIWNGVDYRNGSTVKPYCDTGPVINGSSKAVCVSGKWVPTLGVCPK | 9.8 | 0.003 | – | –
HpARI_CCP2/3 (HpARI truncation lacking CCP1) (domain or fragment) TYDPTPNTPTTVGKDGIWNGVDYRNGSTVKPYCDTGPVINGSSKAVCVSGKWVPTLGVCPKMCSIGSLKENGKFVDVTATTKGDELNPPPREQTLIPIVRKVDKDKVQHGVKVVALCKAEDSTTAAEGVQEFECDNGKWKPEPVPCP | 1.4 | – | – | –
B1 | – | – | 1.1 | 0.00015
